In patent CN116675768A (WUHAN ABCLONAL INC, dated 2023) one finds Kd, koff and kon data, which are given here for two molecules.

In the experiment the target is T1, 重组人NEFL蛋白 (human, UniProt P07196 400-543).
T1 construct: Expressed in E. coli Rosetta(DE3) from the vector pET-28a-sumo and purified on a Ni column; also called 人轻肽神经细丝蛋白(NEFL); 神经丝轻链
T1 sequence: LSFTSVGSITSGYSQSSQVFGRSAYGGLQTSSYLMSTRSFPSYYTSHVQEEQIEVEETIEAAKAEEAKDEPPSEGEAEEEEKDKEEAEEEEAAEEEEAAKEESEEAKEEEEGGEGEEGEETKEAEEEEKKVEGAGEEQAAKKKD
The experiment can be described thus: BLI (Gator); antibody 2 μg/mL, recombinant human NEFL 150 nM and 75 nM.

B1: 兔单克隆抗体2G10 (antibody, V domains shown)
VH: QSLEESGGRLVTPGTRLTLTCTVSGFSLGRYAMGWVRQAPGKGLEWIGIINSYGTTYYASWAKGRFTISKTSTTVDLKITSPTTEDTATYFCARDGYEDYGDYYNAFDPWGPGTLVTVSS
VL: DVVMTQTPASVSEPVGGTVTIKCQASQSIGVTLAWYQQKPGQPPKLLIYKASNLASGVSSRFKGSRSGTEYTLTISDLECADAATYYCQCTWYGPSFVGAFGGGTEVVVKG
notes: also called 抗人NEFL蛋白的兔单克隆抗体2G10; 2G10-biotin
B1: the equilibrium dissociation constant (Kd) came out at 3.2 nM, the koff worked out at 0.00043 s⁻¹ and the kon came to 134000 M⁻¹ s⁻¹.

B2: 兔单克隆抗体1H8 (antibody, V domains shown)
VH: QSLEESGGRLVTPGTPLTLTCAVSGIDLSRYGIDWVRQAPGKGLEWIGTVSAGGDSWYASWAKGRFTISKTSSTTVDLEVTSPTTEDTATYFCAKGATLNLWGQGTLVTVSS
VL: DPVLTQTPSSTSAAVGGTVTINCQSSQNVYGNNWLAWYQKKPGQSPKLLIISASSLPSGVPSRFKGSGSGTQFTLTISDLECDDAATYYCAGGYSGYIYTFGGGTEVVVKG
notes: also called 抗人NEFL蛋白的兔单克隆抗体1H8; 捕获抗体
With B2, the equilibrium dissociation constant (Kd) was determined as 2.03 nM, the koff was found to be 0.000504 s⁻¹ and the association rate constant (kon) stood at 248000 M⁻¹ s⁻¹.

What is called Kd is the concentration at which binding is half-saturated. As usually defined, the koff is the first-order rate constant of dissociation. What is called kon is a measure of how fast the partners come together.
